Drawing on patent publication US20130224854A1 (NIPPON KAYAKU, published 2013), this text covers Kd for one molecule.

For this assay, the target named is T1, single-chain type IV collagen alpha1 polypeptide (human) (human, UniProt P02462 173-1669, lower proportion of hydroxylated proline and hydroxylated lysine residues than type IV collagen; carries a sugar chain recognized by ABA lectin (positions not given)).
T1 construct: mature; Secreted by human cancer cells (HLF, UO31, Lu65A); also called single-chain type IV collagen polypeptide; single-chain COL4
Description: competition ELISA at equilibrium in solution (method of Djavadi-Ohaniance), free antibody measured on immobilized antigen. The protocol: The dissociation constant of the purified monoclonal antibody NK46141 was determined by ELISA with reference to the method of Djavadi-Ohaniance L. et al. [Djavadi-Ohaniance L., et al., (1996) In Antibody Engineering (Eds.: McCafferty J., et al.), Chapter 4, pp. 77-97., IRL Press, Oxford.].
In brief, Immunoplate (Nunc; manufactured by Thermo Fisher Scientific Inc.) with the single-chain type IV collagen al polypeptide (antigen) immobilized thereon in advance was prepared. Meanwhile, JK132 and NK46141 having a constant concentration (0.10 μg/ml) were each incubated with varying concentrations of the antigen for a sufficient time until reaching equilibrium. This incubation solution was added to the ELISA wells to determine the amount of free antibodies. Since the antigen-antibody reaction follows the law of mass action, measured values were applied to formula 1 below. X and Y in formula 2 below were determined, and a graph was drawn to determine the dissociation constant from the slope (1/Kd).
Background: An ELISA detects its analyte on a solid surface through an enzyme-linked reagent.

T1 sequence (P02462 173-1669): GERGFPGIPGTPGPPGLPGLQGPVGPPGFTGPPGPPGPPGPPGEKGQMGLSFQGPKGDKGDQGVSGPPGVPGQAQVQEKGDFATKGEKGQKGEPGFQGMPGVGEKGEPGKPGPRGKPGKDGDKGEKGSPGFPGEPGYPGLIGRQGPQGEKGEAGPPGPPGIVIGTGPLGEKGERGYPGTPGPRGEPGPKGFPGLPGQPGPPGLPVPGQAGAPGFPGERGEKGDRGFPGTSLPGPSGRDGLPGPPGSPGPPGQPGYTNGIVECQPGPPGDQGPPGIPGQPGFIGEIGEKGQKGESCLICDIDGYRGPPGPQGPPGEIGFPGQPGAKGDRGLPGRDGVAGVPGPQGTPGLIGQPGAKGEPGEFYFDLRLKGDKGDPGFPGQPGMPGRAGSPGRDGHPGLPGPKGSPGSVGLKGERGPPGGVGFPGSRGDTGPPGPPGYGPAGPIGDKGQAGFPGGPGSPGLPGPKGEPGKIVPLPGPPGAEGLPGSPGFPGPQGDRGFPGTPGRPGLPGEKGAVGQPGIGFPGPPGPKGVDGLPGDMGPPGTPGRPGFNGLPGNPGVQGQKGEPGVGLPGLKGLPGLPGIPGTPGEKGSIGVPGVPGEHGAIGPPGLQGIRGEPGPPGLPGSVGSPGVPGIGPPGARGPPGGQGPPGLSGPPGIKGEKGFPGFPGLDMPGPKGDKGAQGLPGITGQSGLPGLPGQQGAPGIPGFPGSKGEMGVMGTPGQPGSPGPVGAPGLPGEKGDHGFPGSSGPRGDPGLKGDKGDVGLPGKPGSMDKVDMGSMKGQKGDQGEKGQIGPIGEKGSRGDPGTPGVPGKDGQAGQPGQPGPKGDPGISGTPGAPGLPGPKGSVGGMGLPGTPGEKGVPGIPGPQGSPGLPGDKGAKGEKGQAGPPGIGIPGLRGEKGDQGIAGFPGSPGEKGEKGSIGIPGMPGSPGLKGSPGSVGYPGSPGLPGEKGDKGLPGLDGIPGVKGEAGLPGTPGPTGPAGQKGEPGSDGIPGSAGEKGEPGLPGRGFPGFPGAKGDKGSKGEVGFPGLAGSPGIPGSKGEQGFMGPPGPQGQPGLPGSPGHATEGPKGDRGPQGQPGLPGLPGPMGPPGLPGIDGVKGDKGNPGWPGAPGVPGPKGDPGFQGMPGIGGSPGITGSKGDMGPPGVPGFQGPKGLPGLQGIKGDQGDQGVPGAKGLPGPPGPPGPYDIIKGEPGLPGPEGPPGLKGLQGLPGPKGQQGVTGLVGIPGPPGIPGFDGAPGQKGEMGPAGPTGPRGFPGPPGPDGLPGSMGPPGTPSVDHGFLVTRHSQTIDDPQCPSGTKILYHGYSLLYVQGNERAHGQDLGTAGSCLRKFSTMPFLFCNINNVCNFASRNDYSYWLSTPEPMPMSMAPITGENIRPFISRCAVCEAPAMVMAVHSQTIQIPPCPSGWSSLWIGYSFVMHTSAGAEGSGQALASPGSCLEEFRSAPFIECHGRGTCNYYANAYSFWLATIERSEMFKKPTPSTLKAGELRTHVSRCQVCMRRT

B1: monoclonal antibody NK46141 (antibody, V domains shown)
VH: EVQLVESGGGLVKPGGSLKLSCAASGFTFTDYYMYWVRQTPEKRLEWVATISEGGSYTYYPDSVKGRFTISRDNAKNNLYLQMSSLKSEDTAMYYCASPYYGDGGFAYWGQGTLVTVSA
VL: DVLMTQTPLSLPVSLGDQASISCRSSQSIVHSDGNTYLEWYLQKPGQSPRLLIYKVSNRFSGVPDRFSGSGSGTDFTLKISRVEAEDLGVYYCFQGSHVPPTFGGGTKLEIKR
notes: also called anti-single-chain type IV collagen polypeptide antibody; Anti NK-Antigen monoclonal antibody #141
What is called Kd is a measure of binding affinity in units of concentration. The molecule B1 came in with a Kd of 34 nM.
